Results published in patent US20170305994A1 (Novo Nordisk, published 2017).

How the values were obtained:
[1] = target: T1, cynomolgus DR3 (on HEK293 reporter cells) (cynomolgus, UniProt A0A2K5WJ09 98-464); assay: cell-based or functional assay
T1 sequence: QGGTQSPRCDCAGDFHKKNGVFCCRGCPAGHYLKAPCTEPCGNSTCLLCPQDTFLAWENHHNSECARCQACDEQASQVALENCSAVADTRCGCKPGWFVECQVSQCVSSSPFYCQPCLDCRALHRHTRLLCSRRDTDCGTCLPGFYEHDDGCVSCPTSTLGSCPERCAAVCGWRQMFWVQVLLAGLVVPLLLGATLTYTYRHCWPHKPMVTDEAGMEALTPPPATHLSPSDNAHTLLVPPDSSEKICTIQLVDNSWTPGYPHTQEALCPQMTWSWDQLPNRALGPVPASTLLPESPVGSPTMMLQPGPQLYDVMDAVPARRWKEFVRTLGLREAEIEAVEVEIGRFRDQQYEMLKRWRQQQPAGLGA

[2] = target: T2, human DR3 (full length, on cells) (human, UniProt Q93038 25-417); assay: cell-based or functional assay
T2 sequence: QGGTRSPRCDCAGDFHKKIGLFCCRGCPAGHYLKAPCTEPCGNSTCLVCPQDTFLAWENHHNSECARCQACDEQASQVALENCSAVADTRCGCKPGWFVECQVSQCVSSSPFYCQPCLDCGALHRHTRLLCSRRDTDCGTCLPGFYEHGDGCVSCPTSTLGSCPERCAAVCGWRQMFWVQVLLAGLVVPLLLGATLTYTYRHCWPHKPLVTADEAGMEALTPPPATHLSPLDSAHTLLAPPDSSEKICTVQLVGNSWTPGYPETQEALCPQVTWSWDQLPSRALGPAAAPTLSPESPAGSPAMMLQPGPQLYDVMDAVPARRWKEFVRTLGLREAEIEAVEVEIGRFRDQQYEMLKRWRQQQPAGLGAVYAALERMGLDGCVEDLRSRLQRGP

[3] = target: T3, DR3 (CRD1)-Fc (human); assay: SPR Biacore T200, DR3(CRD1)-Fc captured by anti-human IgG, Fab as analyte, 25 C, 1:1 model, mean of 3 surface densities
T3 construct: Amino acids 25-71 of DR3 fused to the Fc domain of human IgG4; purified to exclude oligomers (mainly dimeric)
Procedure: The experiments were performed on a Biacore T200 instrument (GE Healthcare) and analysed with the Biacore T200 Evaluation Software. Anti human IgG antibodies (human IgG capture kit from GE Healthcare) were immobilized on all flow cells of a CM5 sensor chip according to manufacturer's instructions. HBS-EP (GE Healthcare) with 0.1% human serum albumin was used as running buffer. DR3(CRD1)-Fc (SEQ ID NO:2) was captured on the chip at low surface densities between 14 and 45 RU. Fab fragments were diluted to concentrations between 90 and 0.037 nM and subsequently injected for 360 s. […] Binding curves were measured at 25° C. with a flow rate between 30 and 60 μL/min.
Regeneration was performed with 3 M […] for 2×20 s. The raw data were double referenced by subtraction of the signals from a reference flow cell without captured ligand and a buffer blank. Determination of the kinetic parameters was performed by fitting with a 1:1 binding model using the Biacore T200 Evaluation Software (GE Healthcare). Average values obtained from 3 different surface densities of DR3(CRD1)-Fc (SEQ ID NO:2) were calculated and are stated in table 14

[4] = target: T4, marmoset DR3 (transiently expressed on HEK293 cells) (marmoset, UniProt U3ENN5 27-418); assay: cell-based or functional assay
T4 sequence: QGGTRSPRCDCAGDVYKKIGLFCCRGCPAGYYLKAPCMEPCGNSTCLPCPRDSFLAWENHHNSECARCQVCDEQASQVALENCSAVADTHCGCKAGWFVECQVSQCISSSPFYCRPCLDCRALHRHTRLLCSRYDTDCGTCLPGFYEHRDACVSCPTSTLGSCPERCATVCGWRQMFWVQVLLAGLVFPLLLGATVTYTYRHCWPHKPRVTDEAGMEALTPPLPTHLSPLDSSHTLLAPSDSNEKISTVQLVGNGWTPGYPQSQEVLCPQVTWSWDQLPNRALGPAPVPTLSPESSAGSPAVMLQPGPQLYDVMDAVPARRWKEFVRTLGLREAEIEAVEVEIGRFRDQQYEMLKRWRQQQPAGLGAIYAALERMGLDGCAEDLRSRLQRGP

[5] = target: T1, cynomolgus DR3 (on HEK293 reporter …); assay: cell-based or functional assay; remark: listed apart in the source
[6] = target: T2, human DR3 (full length, on cells); assay: cell-based or functional assay; remark: listed apart in the source
[7] = target: T5, human DR3 with the death domain deleted (ΔM339-P417 of SEQ ID NO:1), expressed on CHOK1SV cells (human, UniProt Q93038 25-338); assay: flow cytometry competition: Fab vs TL1A on hDR3-expressing CHO cells
T5 construct: also called truncated DR3; hDR3 expressing CHO cells
T5 sequence: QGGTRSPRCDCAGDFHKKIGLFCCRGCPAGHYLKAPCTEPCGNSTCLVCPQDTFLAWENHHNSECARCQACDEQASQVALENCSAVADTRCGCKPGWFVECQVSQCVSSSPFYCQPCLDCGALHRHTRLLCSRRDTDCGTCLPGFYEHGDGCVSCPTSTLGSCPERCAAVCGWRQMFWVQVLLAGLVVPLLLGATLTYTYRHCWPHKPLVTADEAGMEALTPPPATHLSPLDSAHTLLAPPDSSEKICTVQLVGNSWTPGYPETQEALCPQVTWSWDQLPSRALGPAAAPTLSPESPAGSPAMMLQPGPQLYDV

T3 sequence (chain, as listed by the source limits assumed): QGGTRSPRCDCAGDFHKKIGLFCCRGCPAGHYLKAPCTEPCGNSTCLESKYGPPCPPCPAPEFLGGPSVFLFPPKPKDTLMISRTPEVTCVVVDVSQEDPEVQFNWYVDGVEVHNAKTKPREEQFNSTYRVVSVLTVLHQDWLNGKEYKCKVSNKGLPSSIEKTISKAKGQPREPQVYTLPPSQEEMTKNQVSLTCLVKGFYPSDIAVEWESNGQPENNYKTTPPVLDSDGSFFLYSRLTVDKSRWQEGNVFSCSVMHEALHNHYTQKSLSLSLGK

IC50 at 40 ng/ml TL1A, Lyda20 reporter cells [1]: 628000 pM | IC50 at 40 ng/ml TL1A, I5 reporter cells [2]: 320 pM | Kd [3]: 8.05 pM | koff [3]: 3.19e-05 s⁻¹ | kon [3]: 3.97e+06 M⁻¹ s⁻¹ | IC50 at 40 ng/ml TL1A, transient reporter HEK293 [4]: 549 pM | IC50 at 40 ng/ml TL1A, transient reporter HEK293 [5]: 73000 pM | IC50 at 40 ng/ml TL1A, transient reporter HEK293 [6]: 355 pM
B1: 0228 (humanized Fab of 27F44, IgG4, hz0072VH S49A / hz0072VL) (Fab, V domains shown)
VH: EVQLVESGGGLVQPGGSLRLSCAASGFTFSNYDMSWVRQATGKGLEWVAAFSSDGYTFYPGSVKGRFTISRENAKNSLYLQMNSLRAGDTAVYYCARHADYANYPVMDYWGQGTLVTVSS
VL: DIQMTQSPSSLSASVGDRVTITCRASKSVSTSGYSYMHWYQQKPGKAPKLLIYLASNLESGVPSRFSGSGSGTDFTLTISSLQPEDFATYYCQHSRELPLTFGGGTKVEIKR
notes: IgG4-Cys, hz (humanized IgG4 Fab with the hinge cysteine kept)
IC50 [7]: 484 pM | max percentage inhibition [7]: 78%
